The values below come from patent US20070020257A1.

In the experiment the target is integrins on cell surface of mucosae. Briefly: cell-based or functional assay.

As to YIGSRTYEAALKQYEADLKKTYEAALKQYEADL [YIGSR-DUP (di unit peptide with the cell attachment motif YIGSR at the N-terminal region)], the Titer against PAc (intranasal YIGSR-DUP given together with an excess of YIGSR peptide as inhibitor) (titer (maximum serum dilution)) is 235 and the Titer against PAc (serum of BALB/c mice after intranasal administration of YIGSR-DUP) (titer (maximum serum dilution)) was determined as 1200.

Molecule RGDTYEAALKQYEADLKKTYEAALKQYEADL [RGD-DUP (di unit peptide with the cell attachment motif RGD at the N-terminal region)] gave a Titer against PAc (intranasal RGD-DUP given together with an excess of RGDS peptide as inhibitor) (titer (maximum serum dilution)) of 256 and a Titer against PAc (serum of BALB/c mice after intranasal administration of RGD-DUP) (titer (maximum serum dilution)) of 5070.
